Test results taken from IntAct's records for PubMed 20526328.

B1: Kinesin-like protein KIF17 (Homo sapiens), Q9P2E2 (parent)
chain: MASEAVKVVVRCRPMNQRERELRCQPVVTVDCARAQCCIQNPGAADEPPKQFTFDGAYHVDHVTEQIYNEIAYPLVEGVTEGYNGTIFAYGQTGSGKSFTMQGLPDPPSQRGIIPRAFEHVFESVQCAENTKFLVRASYLEIYNEDVRDLLGADTKQKLELKEHPEKGVYVKGLSMHTVHSVAQCEHIMETGWKNRSVGYTLMNKDSSRSHSIFTISIEMSAVDERGKDHLRAGKLNLVDLAGSERQSKTGATGERLKEATKINLSLSALGNVISALVDGRCKHVPYRDSKLTRLLQDSLGGNTKTLMVACLSPADNNYDETLSTLRYANRAKNIRNKPRINEDPKDALLREYQEEIKKLKAILTQQMSPSSLSALLSRQVPPDPVQVEEKLLPQPVIQHDVEAEKQLIREEYEERLARLKADYKAEQESRARLEEDITAMRNSYDVRLSTLEENLRKETEAVLQVGVLYKAEVMSRAEFASSAEYPPAFQYETVVKPKVFSTTDTLPSDDVSKTQVSSRFAELPKVEPSKSEISLGSSESSSLEETSVSEAFPGPEEPSNVEVSMPTEESRSRYFLDECLGQEAAGHLLGEQNYLPQEEPQEVPLQGLLGLQDPFAEVEAKLARLSSTVARTDAPQADVPKVPVQVPAPTDLLEPSDARPEAEAADDFPPRPEVDLASEVALEVVRTAEPGVWLEAQAPVALVAQPEPLPATAGVKRESVGMEVAVLTDDPLPVVDQQQVLARLQLLEQQVVGGEQAKNKDLKEKHKRRKRYADERRKQLVAALQNSDEDSGDWVLLNVYDSIQEEVRAKSKLLEKMQRKLRAAEVEIKDLQSEFQLEKIDYLATIRRQERDSMLLQQLLEQVQPLIRRDCNYSNLEKILRESCWDEDNGFWKIPHPVITKTSLPVAVSTGPQNKPARKTSAADNGEPNMEDDRYRLMLSRSNSENIASNYFRSKRASQILSTDARKSLTHHNSPPGLSCPLSNNSAIPPTQAPEMPQPRPFRLESLDIPFTKAKRKKSKSNFGSEPL

Variants of: B1
Settings: with tnpo1_human TNPO1, Q92973
Sequence of tnpo1_human TNPO1, Q92973 (Q92973 whole entry): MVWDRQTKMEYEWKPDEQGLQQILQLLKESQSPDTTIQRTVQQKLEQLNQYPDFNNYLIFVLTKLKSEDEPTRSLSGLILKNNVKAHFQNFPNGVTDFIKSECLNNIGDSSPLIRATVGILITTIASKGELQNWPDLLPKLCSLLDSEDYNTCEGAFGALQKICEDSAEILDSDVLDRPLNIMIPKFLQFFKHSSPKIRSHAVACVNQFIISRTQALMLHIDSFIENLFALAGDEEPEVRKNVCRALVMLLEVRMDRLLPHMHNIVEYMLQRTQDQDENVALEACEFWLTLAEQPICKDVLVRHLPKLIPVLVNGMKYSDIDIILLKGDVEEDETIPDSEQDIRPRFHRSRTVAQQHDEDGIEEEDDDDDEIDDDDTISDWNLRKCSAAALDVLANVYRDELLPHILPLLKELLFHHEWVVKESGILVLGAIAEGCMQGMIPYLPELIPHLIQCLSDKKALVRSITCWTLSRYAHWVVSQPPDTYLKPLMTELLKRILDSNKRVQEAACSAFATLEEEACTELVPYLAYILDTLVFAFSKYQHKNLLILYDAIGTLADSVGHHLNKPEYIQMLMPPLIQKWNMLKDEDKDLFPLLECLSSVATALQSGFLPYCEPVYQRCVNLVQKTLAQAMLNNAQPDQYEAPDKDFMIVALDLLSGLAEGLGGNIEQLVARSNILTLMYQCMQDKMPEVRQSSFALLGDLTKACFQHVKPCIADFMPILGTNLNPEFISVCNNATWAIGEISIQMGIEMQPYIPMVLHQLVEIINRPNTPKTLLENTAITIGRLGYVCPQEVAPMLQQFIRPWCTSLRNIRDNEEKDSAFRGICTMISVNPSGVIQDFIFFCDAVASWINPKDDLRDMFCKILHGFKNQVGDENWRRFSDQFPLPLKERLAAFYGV

Row | Variant | effect of a mutation on the interaction
1 | K1016A;R1017A;K1018A;K1019A | disrupting interaction strength
